“Also recorded” adds a separate entry of the source.
Columns and labels:
[1] = later time points; cited from earlier work
[2] = system: PC-3 tumor uptake in nude mice; conditions: mouse, in vivo; cited from earlier work
[3] = system: PC-3 cells; test: Blocking experiment, cellular uptake of tracer; type: cell-based, human; conditions: 50 μg blocker added 15 min prior to tracer
[4] = Biodistribution in PC-3 tumor-bearing SCID mice; conditions: female, mouse, in vivo, iv, total radioactivity; for tissue uptake at 24 h: 24 h p.i.
[5] = system: PC-3 tumor-bearing SCID mice; test: Biodistribution in PC-3 tumor-bearing SCID mice; conditions: PC-3 tumor-bearing SCID mice, tail vein injection, 1 h p.i., mean±S.D., n=5, bilateral xenografts
[6] = system: PC-3 cells; test: In vitro internalization assay; type: cell-based, human; conditions: 37°C, postincubation
[7] = Biodistribution in healthy CF-1 mice; type: in vivo, mouse; conditions: female, CF-1, mouse, iv, 750 kBq, total radioactivity
[8] = system: CF-1 mice; test: Biodistribution in healthy CF-1 mice; type: in vivo, mouse; conditions: CF-1 mice, tail vein injection, after 1 h p.i.
[9] = system: PC-3 tumor-bearing SCID mouse; test: MicroPET/CT imaging; type: in vivo; conditions: PC-3 tumor-bearing mouse, 26 MBq via tail vein, 15 h p.i.
[10] = in vivo; conditions: female, SCID, mouse, iv, 750 kBq, total radioactivity; for tissue uptake at 1 h / tissue uptake at 4 h / tissue uptake at 24 h: Biodistribution
[11] = molecular target: αvβ3 receptors on PC-3 cells (Homo sapiens, UniProt P05106+P06756); test: Cell binding assay, displacement of 125I-Echistatin in PC-3 cells
[12] = system: GRPr; conditions: read-out: GRPr binding affinity; nonmetallated probe; cited from earlier work

Chain of αvβ3 receptors on PC-3 cells (P06756 31-889 limits assumed): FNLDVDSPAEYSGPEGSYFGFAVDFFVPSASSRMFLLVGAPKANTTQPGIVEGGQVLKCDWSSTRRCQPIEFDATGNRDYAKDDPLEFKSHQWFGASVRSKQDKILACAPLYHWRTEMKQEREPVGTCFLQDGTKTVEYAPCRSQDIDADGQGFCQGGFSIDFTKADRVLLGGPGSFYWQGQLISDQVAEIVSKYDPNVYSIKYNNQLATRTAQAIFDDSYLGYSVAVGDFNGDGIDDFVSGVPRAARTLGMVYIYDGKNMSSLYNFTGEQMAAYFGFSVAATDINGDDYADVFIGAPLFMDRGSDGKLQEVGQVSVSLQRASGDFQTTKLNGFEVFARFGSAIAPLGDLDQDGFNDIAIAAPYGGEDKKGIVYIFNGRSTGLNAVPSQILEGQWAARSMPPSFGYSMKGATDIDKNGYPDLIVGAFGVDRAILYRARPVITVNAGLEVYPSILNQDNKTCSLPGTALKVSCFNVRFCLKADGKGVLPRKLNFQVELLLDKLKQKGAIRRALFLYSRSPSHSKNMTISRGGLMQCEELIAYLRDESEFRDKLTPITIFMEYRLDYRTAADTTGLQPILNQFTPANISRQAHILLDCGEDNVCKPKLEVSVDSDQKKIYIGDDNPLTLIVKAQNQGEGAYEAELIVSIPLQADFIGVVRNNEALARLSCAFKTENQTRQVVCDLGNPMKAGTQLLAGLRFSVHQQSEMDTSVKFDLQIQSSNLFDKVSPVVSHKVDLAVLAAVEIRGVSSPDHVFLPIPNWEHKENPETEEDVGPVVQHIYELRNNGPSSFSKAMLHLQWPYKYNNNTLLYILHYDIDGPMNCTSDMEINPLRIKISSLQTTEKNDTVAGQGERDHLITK
Chain of αvβ3 receptors on PC-3 cells (P06756 891-1048 partner limits assumed): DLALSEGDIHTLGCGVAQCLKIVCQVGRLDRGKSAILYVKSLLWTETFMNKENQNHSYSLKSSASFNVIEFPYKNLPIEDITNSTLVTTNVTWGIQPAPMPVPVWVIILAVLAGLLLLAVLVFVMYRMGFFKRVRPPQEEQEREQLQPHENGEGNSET
Chain of αvβ3 receptors on PC-3 cells (P05106 27-788): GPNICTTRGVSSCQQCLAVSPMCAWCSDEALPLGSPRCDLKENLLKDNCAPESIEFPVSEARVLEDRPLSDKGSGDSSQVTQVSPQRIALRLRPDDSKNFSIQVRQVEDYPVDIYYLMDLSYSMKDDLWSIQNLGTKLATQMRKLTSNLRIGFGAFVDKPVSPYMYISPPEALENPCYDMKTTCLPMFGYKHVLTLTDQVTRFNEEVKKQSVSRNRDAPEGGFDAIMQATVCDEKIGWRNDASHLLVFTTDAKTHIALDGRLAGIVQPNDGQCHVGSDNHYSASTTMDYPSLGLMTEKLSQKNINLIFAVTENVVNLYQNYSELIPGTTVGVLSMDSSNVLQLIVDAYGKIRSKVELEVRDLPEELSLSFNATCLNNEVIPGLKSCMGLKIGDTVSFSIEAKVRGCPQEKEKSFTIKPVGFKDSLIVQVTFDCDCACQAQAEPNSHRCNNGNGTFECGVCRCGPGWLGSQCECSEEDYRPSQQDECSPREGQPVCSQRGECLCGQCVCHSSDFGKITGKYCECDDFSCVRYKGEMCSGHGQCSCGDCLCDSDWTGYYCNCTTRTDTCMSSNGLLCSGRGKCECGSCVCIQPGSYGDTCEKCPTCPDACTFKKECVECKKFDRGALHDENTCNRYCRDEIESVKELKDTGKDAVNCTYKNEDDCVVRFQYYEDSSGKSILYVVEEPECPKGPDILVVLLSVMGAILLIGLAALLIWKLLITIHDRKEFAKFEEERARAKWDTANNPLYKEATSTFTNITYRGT

In the case of ^64Cu-NO3A-RGD-BBN(7-14)NH2, the “Internalization rate compared to ^64Cu-NO2A-RGD-Glu-6-Ahx-BBN(7-14)NH2” value [1] is given as “approximately three times higher”, the PC-3 tumor retention [2] is given as 2.04±0.35 %ID/g and the “Retention in the kidneys” value [2] is given as 1.87±0.41 %ID/g.
For NO2A-RGD, the “Reduction of cellular uptake of ^64Cu-NO2A-RGD-Glu-6-Ahx-BBN(7-14)NH2 tracer” value [3] was 65%.
For ^64Cu-NO3A-BBN(7-14)NH2, the PC-3 tumor retention [2] is listed as 0.44±0.39 %ID/g.
`CSCC[C@H](NC(=O)[C@H](CC(C)C)NC(=O)[C@H](Cc1c[nH]cn1)NC(=O)CNC(=O)[C@@H](NC(=O)[C@H](C)NC(=O)[C@H](Cc1c[nH]c2ccccc12)NC(=O)[C@H](CCC(N)=O)NC(=O)CCCCCNC(=O)[C@H](CCC(=O)NCCCC[C@@H]1NC(=O)[C@@H](Cc2ccc(O)cc2)NC(=O)[C@H](CC(=O)O)NC(=O)CNC(=O)[C@H](CCCNC(=N)N)NC1=O)NC(=O)CN1CCN(CC(=O)O)CCN(CC(=O)O)CC1)C(C)C)C(N)=O` [^64Cu-NO2A-RGD-Glu-6-Ahx-BBN(7-14)NH2, metal not drawn] gave a tissue uptake at 1 h ([4]; ICR SCID, 750 kBq (~20 uCi)) of 1.04 ± 0.08 %ID/g, a tissue uptake at 1 h ([4]; SCID, 750 kBq, Biodistribution, Bladder, PC-3 tumor-bearing SCID mice, tail vein injection, 1 h p.i., mean±S.D., n=5) of 3.39 ± 3.54 %ID/g and a tissue uptake at 4 h ([4]; SCID, 750 kBq, Biodistribution, Bladder, PC-3 tumor-bearing SCID mice, tail vein injection, 4 h p.i., mean±S.D., n=5) of 0.55 ± 0.33 %ID/g. The tissue uptake at 24 h ([4]; SCID, 750 kBq, Biodistribution, Bladder, PC-3 tumor-bearing SCID mice, tail vein injection, mean±S.D., n=5) was 0.31 ± 0.29 %ID/g, the tissue uptake at 24 h ([4]; SCID, 750 kBq, Biodistribution, Tumor, PC-3 tumor-bearing SCID mice, tail vein injection, mean±S.D., n=5, bilateral xenografts) was 2.42 ± 0.57 %ID/g and the “Biodistribution, Tumor” value [5] was 3.95±1.04 %ID/g. For the same molecule, the “Time of maximum internalization” value [6] was ~ 90 min, the tissue uptake at 1 h ([7]; pancreas) was 5.9 ± 1.74 %ID/g and the tissue uptake dose at 1 h ([7]; whole blood) was 0.42 %ID. For the same molecule, the Urinary excretion [8] was ~85%, the MicroPET image quality [9] was “high-quality, high-contrast images” and the tissue uptake dose at 1 h [10] was 0.72 ± 0.1 %ID. It also gave a tissue uptake dose at 4 h [10] of 0.16 ± 0.05 %ID, a tissue uptake dose at 24 h [10] of 0.18 ± 0.02 %ID and a tissue uptake at 1 h ([10]; Bone) of 0.52 ± 0.27 %ID/g. The tissue uptake at 4 h ([10]; Bone) was 0.13 ± 0.08 %ID/g, the tissue uptake at 24 h ([10]; Bone) was 0.13 ± 0.15 %ID/g and the tissue uptake at 1 h ([10]; Brain) was 0.05 ± 0.01 %ID/g. It also gave a tissue uptake at 4 h ([10]; Brain) of 0.04 ± 0.02 %ID/g, a tissue uptake at 24 h ([10]; Brain) of 0.03 ± 0.02 %ID/g and a tissue uptake at 1 h ([10]; Heart) of 0.35 ± 0.1 %ID/g. For the same molecule, the tissue uptake at 4 h ([10]; Heart) was 0.22 ± 0.05 %ID/g, the tissue uptake at 24 h ([10]; Heart) was 0.48 ± 0.17 %ID/g and the tissue uptake at 1 h ([10]; Large intestine) was 1.34 ± 0.11 %ID/g. The tissue uptake at 4 h ([10]; Large intestine) was 6.86 ± 0.88 %ID/g, the tissue uptake at 24 h ([10]; Large intestine) was 0.85 ± 0.18 %ID/g and the tissue uptake at 1 h ([10]; Lung) was 0.97 ± 0.25 %ID/g. For the same molecule, the tissue uptake at 1 h ([10]; Muscle) was 0.22 ± 0.08 %ID/g, the tissue uptake at 4 h ([10]; Muscle) was 0.09 ± 0.04 %ID/g and the tissue uptake at 24 h ([10]; Muscle) was 0.08 ± 0.1 %ID/g. It also gave a tissue uptake at 1 h ([10]; Pancreas) of 21.6 ± 3.3 %ID/g, a tissue uptake at 4 h ([10]; Pancreas) of 13.2 ± 1.79 %ID/g and a tissue uptake at 24 h ([10]; Pancreas) of 5.18 ± 0.57 %ID/g. For the same molecule, the tissue uptake at 1 h ([10]; Small intestine) was 5.21 ± 0.75 %ID/g, the tissue uptake at 4 h ([10]; Small intestine) was 2.1 ± 0.4 %ID/g and the tissue uptake at 24 h ([10]; Small intestine) was 0.78 ± 0.14 %ID/g.
For ^natCu-NO2A-RGD, the “Displacement of 125I-Echistatin (binding affinity for αvβ3 receptors)” value [11] was “minimal displacement; also recorded: extremely poor binding affinity”.
In the case of NO3A-RGD-BBN(7-14)NH2, the IC50 [12] is listed as 92.8 ± 3.53 nM.
In the case of ^64Cu-NO3A-RGD, the PC-3 tumor retention [2] is given as 0.55±0.32 %ID/g.

— article PMC3629973 (Nuclear medicine and biology, 2012)
